# Experimental data reported in patent US20250101107A1 (REPERTOIRE IMMUNE MEDICINES, published 2025).
# Key:
# [1] = target: T1, human CD8 on human T cells (human, UniProt P01732 22-235; P10966 22-210); test: flow cytometry, 5 nM antibody on human CD8+ T cells, anti-human IgG detection (MFI AF647)
# T1 construct: whole, on cells; Target as carried by human CD3+/CD8+ T cells, PBMCs or MART-1-specific T cells; the mice were immunized with human CD8a; also called hCD8; CD8 expressed on the cell surface
# T1 sequence (P01732 22-235, chain 1 of 2): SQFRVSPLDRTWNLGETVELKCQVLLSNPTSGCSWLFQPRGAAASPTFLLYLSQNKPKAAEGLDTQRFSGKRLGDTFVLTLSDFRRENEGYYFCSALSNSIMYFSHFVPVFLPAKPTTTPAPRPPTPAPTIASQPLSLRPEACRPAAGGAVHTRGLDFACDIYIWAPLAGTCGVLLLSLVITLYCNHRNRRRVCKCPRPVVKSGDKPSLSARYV
# T1 sequence (P10966 22-210, chain 2 of 2): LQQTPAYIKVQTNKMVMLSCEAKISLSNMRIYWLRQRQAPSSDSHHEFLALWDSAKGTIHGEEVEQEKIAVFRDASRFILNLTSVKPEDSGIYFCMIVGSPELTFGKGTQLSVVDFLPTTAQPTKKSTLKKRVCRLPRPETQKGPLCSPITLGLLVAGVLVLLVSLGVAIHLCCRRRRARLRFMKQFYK
# Method: The 16 above-referenced humanized 03A01-derived anti-CD8 antibodies were screened for their ability to bind human CD8 by evaluating binding to CD8⁺ T cells. The non-humanized parent (“03-Parent”) and the non-humanized parent comprising a heavy chain D64E liability mutation (“03-Parent-VH-D64E”) were used as controls. […] Cells were washed with 1 X phosphate buffered saline (PBS) containing 1 mg/mL bovine serum albumin (PBS/BSA) and then stained with a 1:100 dilution of DyLight650-conjugated anti-human IgG H+L polyclonal antibody (ThermoFisher cat. no. Sa5-10129) in PBS/BSA. Following a 20-30 min incubation at 4° C., the cells were washed once with PBS/BSA, and then resuspended in PBS/BSA for analysis on a FACSCelesta using Diva software (BD Biosciences). The resulting data were analyzed using FlowJo. Data were quantified and reported as Max fluorescence intensity (MFI) of human IgG-Fc. […] Complete replacement of the LCDR1 (antibodies comprising VK4) eliminated binding to the CD8+ T cells.
# [2] = target: T1, human CD8 on human T cells; test: cell-based or functional assay
binding result [1],"EC50 for stimulation of pSTAT4 signaling, CD8+ T cells in pre-activated human PBMCs [2] [pM]",Binder
binds,,"humanized 03A01-VH1-VK1 (antibody, V domains shown) VH: EVQFQESGPGLVKPSQTLSLTCTVTGYSITSDFAWNWIRQPPGKELEWMGYISYSGDTNYNPSLRSRITISRDTSKNQFSLKLSSVTAADTATYYCTIRGYYTDSAFVFWGQGTLVTVSS VL: DIQMTQSSSTLSVSLGDRVTITCKASDHINNWLAWYQQKPGKAPRLLISGATSLETGVPSRFSGSGSGLEYTLTISSLQPDDFATYYCQQYWNSPFTFGQGTKLEIK"
binds,,"humanized 03A01-VH4-VK1 (antibody, V domains shown) VH: EVQFQESGPGLVKPSQTLSLTCTVSGYSITSDFAWNWIRQPPGKGLEWIGYISYSGDTYYNPSLKSRVTISRDTSKNQFSLKLSSVTAADTAVYYCTIRGYYTDSAFVFWGQGTLVTVSS VL: DIQMTQSSSTLSVSLGDRVTITCKASDHINNWLAWYQQKPGKAPRLLISGATSLETGVPSRFSGSGSGLEYTLTISSLQPDDFATYYCQQYWNSPFTFGQGTKLEIK"
binds,,"humanized 03A01-VH2-VK1 (antibody, V domains shown) VH: EVQFQESGPGLVKPSQTLSLTCTVSGYSITSDFAWNWIRQPPGKGLEWMGYISYSGDTNYNPSLRSRITISRDTSKNQFSLKLSSVTAADTAVYYCTIRGYYTDSAFVFWGQGTLVTVSS VL: DIQMTQSSSTLSVSLGDRVTITCKASDHINNWLAWYQQKPGKAPRLLISGATSLETGVPSRFSGSGSGLEYTLTISSLQPDDFATYYCQQYWNSPFTFGQGTKLEIK"
binds,,"humanized 03A01-VH4-VK2 (antibody, V domains shown) VH: EVQFQESGPGLVKPSQTLSLTCTVSGYSITSDFAWNWIRQPPGKGLEWIGYISYSGDTYYNPSLKSRVTISRDTSKNQFSLKLSSVTAADTAVYYCTIRGYYTDSAFVFWGQGTLVTVSS VL: DIQMTQSPSTLSVSVGDRVTITCKASDHINNWLAWYQQKPGKAPKLLISGATSLETGVPSRFSGSGSGLEYTLTISSLQPDDFATYYCQQYWNSPFTFGQGTKLEIK"
binds,,"humanized 03A01-VH4-VK3 (antibody, V domains shown) VH: EVQFQESGPGLVKPSQTLSLTCTVSGYSITSDFAWNWIRQPPGKGLEWIGYISYSGDTYYNPSLKSRVTISRDTSKNQFSLKLSSVTAADTAVYYCTIRGYYTDSAFVFWGQGTLVTVSS VL: DIQMTQSPSTLSASVGDRVTITCKASDHINNWLAWYQQKPGKAPKLLISGATSLETGVPSRFSGSGSGLEYTLTISSLQPDDFATYYCQQYWNSPFTFGQGTKLEIK"

# The next lines start with the binder.
Binder,binding result [1],"EC50 for stimulation of pSTAT4 signaling, CD8+ T cells in pre-activated human PBMCs [2] [pM]"
"02A01-IgG-IL12 (LC) (other, not shown: a dimerising Fc or GST) heavy: EVQLQQSGPELVKPGASLKISCKASGYTFTDFTMHWVKQSHGKSLEWIGLVNPNNGGNIYNQNFKGKATLTVDTSSSTAYMELRSLTSEDSSVYYCGRVPLYTSHGMDYWGQGTSVTVSS light: DIVLTQSPAFLAVSLGQRATISCRASESVDSYDINSMHWYQQKPGQPPKLLIYRASHLQSGIPARFSGSGSRTDFTLTINFVEADDVATYYCQQSNEDPLTFGAGTKLELK",,2.72
"03-Parent-VH-D64E (antibody, V domains shown, also called 03A01 VH-D64E) VH: DVQFQESGPGLVKPSQSLSLTCTVTGYSITSDFAWNWIRQFPGNELEWMGYISYSGETNYNPSLRSRISITRDTSKNQFFLQLDSVTTEDTATYYCTIRGYYTDSAFVFWGQGTLVTVSA VL: DIQMTQSSSYLSVSLGGRVTITCKASDHINNWLAWYQQKPGNAPRLLISGATSLETGVPSRFTGSGSGLDYTLSITSLQTEDVATYYCQQYWNSPFTFGSGTKLEIK",binds,
"03A01-IgG-IL12 (LC) (other, not shown: a dimerising Fc or GST) heavy: DVQFQESGPGLVKPSQSLSLTCTVTGYSITSDFAWNWIRQFPGNELEWMGYISYSGDTNYNPSLRSRISITRDTSKNQFFLQLDSVTTEDTATYYCTIRGYYTDSAFVFWGQGTLVTVSA light: DIQMTQSSSYLSVSLGGRVTITCKASDHINNWLAWYQQKPGNAPRLLISGATSLETGVPSRFTGSGSGLDYTLSITSLQTEDVATYYCQQYWNSPFTFGSGTKLEIK",,14.7
